Key:
[1] = molecular target: Wild-type GPIbα, residues 1-290, with Avi-tag, biotinylated; experiment: BLI
A1 short (human) = A1 short (human) (UniProt P04275); experiment: ITC

Substance “A1 short (from UniProt P04275 1264-1469) (domain or fragment)” has a Kd [1] of 0.18 µM.

Work on “A1+C (from UniProt P04275 1264-1486) (domain or fragment)” yielded a fold lower affinity than A1 short [1] of 2.5 fold.

“A1+N (from UniProt P04275 1238-1469) (domain or fragment)” was tested, and the fold lower affinity than A1 short [1] was 4.3 fold.

“A1+N+C (from UniProt P04275 1238-1486) (domain or fragment)” showed a fold lower affinity than A1 short [1] of 10 fold.

With “A1+OGly+C (from UniProt P04275 1264-1489) (domain or fragment)” the fold lower affinity than A1+C [1] was 2 fold and the fold lower affinity than A1 without linkers [1] was 6 fold.

In the case of “A1+OGly+N (from UniProt P04275 1238-1469) (domain or fragment)”, the fold lower affinity than A1+N [1] is reported as 10 fold and the fold lower affinity than A1 without linkers [1] is reported as 51 fold.

“A1+OGly+N+C (from UniProt P04275 1238-1489) (domain or fragment)” gave a Kd [1] of 9.2 µM, a fold increase in affinity in 10 mM against 150 mM NaCl [1] of 20 fold and a fold increase in kon in 10 mM against 150 mM NaCl [1] of 7 fold. The fold lower affinity than with the O-glycosylated N-linker alone [1] was 1.2 fold.

In the case of “Wild-type GPIbα, residues 1-290, without Avi-tag (domain or fragment)”, the fold higher affinity than A1+OGly+N+C (A1 short (human)) is reported as 39 fold.
